Source: publication doi:10.1101/2023.11.05.564366v1

Experiments:
Assay in all cases: purified protein
Details in all cases: 50 °C, 1100 rpm
[1] = substrate: O=C(O)c1ccc(C(=O)OCCOC(=O)c2ccc(C(=O)OCCO)cc2)cc1
[2] = substrate: O=C(O)c1ccc(C(=O)OCCO)cc1
[3] = substrate: O=C(O)c1ccc(C(=O)OCCOC(=O)c2ccc(C(=O)OCCOC(=O)c3ccc(C(=O)O)cc3)cc2)cc1
[4] = substrate: O=C(OCCO)c1ccc(C(=O)OCCO)cc1

B1: LCCICCG (unidentified prokaryotic organism; D238C/F243I/S283C/Y127G) (protein)
chain: QSNPYQRGPNPTRSALTADGPFSVATYTVSRLSVSGFGGGVIYYPTGTSLTFGGIAMSPGYTADASSLAWLGRRLASHGFVVLVINTNSRFDGPDSRASQLSAALNYLRTSSPSAVRARLDANRLAVAGHSMGGGGTLRIAEQNPSLKAAVPLTPWHTDKTFNTSVPVLIVGAEADTVAPVSQHAIPFYQNLPSTTPKVYVELCNASHIAPNSNNAAISVYTISWMKLWVDNDTRYRQFLCNVNDPALCDFRTNNRHCQ
Which results are given for B1?
Km [1]: 210 ± 91 µM; kcat [1]: 9.1 ± 2.71 s⁻¹; Km [2]: 920 ± 220 µM; kcat [2]: 0.058 ± 0.0024 s⁻¹; Km [3]: 670 ± 610 µM; kcat [3]: 331 ± 142 s⁻¹; Km [4]: 750 ± 270 µM; kcat [4]: 8.2 ± 1.22 s⁻¹
